Measured values published in patent US20140087995A1 (published 2014).
Numbered stars: 1 amine (or outer) side, 2 acyl side, 3 side chain; on linkers, the order of the positions; unused ones are H or OH. Bridge positions count the residues as written; N and C are the ends. Side chains are listed from the residue outwards. Ends that are not written are not given here. * marks the point of attachment. C20 diacid = O=C(O)CCCCCCCCCCCCCCCCCCC(=O)*; C18 diacid = O=C(O)CCCCCCCCCCCCCCCCC(=O)*; C16 diacid = O=C(O)CCCCCCCCCCCCCCC(=O)*; γGlu = O=C(O)[C@H](CCC(=O)[*:2])N[*:1]; C14 diacid = O=C(O)CCCCCCCCCCCCC(=O)*

T1: human calcitonin receptor (human, UniProt P30988 25-474)
T1 construct: whole, on cells; Membranes from stably transfected BHK cells; also called hCTR; hCT
T1 sequence (looked up): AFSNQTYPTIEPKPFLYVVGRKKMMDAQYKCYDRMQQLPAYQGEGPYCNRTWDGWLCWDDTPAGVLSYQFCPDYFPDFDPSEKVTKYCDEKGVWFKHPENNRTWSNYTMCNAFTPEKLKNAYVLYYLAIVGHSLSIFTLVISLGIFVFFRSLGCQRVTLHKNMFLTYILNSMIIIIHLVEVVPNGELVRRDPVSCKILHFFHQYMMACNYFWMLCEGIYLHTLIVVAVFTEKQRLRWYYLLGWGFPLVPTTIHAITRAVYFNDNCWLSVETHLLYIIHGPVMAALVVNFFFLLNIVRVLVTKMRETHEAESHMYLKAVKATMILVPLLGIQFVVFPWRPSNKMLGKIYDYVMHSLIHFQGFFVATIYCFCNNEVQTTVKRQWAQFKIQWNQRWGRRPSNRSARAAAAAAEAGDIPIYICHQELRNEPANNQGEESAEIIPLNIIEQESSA

T2: rat calcitonin receptor (rat, UniProt P32214 25-516)
T2 construct: whole, on cells; Membranes prepared from transiently transfected BHK tk'ts 13 cells; also called rCTR; rat calcitonin (a) receptor
T2 sequence (looked up): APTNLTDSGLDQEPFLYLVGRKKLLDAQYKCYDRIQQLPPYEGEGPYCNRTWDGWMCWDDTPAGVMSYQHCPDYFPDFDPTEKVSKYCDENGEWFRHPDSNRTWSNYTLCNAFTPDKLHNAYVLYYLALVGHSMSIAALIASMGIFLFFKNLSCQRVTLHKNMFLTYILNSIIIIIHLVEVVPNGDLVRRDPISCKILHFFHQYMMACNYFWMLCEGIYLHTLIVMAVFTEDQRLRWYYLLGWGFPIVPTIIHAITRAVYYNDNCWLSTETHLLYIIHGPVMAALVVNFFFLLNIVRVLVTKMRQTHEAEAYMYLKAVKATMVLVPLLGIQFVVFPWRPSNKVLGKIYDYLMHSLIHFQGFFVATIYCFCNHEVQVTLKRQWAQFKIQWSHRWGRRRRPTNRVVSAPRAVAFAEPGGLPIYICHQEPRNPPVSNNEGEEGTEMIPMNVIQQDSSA

T3: rat amylin receptor (rat calcitonin receptor + rat RAMP 3) (rat, UniProt P32214 25-516; Q9JJ73 23-147)
T3 construct: whole, on cells; Membranes prepared from transiently transfected BHK tk'ts 13 cells; also called rAmylin-R; rat amylin 3(a) receptor
T3 sequence (looked up) 1: T2 sequence (looked up)
T3 sequence (looked up) 2: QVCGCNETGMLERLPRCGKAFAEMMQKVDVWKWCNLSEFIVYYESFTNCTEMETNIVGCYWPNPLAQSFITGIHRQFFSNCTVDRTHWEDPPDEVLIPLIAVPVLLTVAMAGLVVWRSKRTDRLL

B1: N^ε1-[(4S)-4-carboxy-4-(13-carboxytridecanoylamino)butanoyl]-[Arg17,Pro21,Pro27,His34]-h-amylin (peptide)
peptide: K([γGlu-C14 diacid])CNTATCATQRLANFLRHSSPNFGAIPSSTNVGHNTY-NH2
modifications: disulfide 2-7; N-terminus assumed
SMILES: CC[C@H](C)[C@H](NC(=O)[C@H](C)NC(=O)CNC(=O)[C@H](Cc1ccccc1)NC(=O)[C@H](CC(N)=O)NC(=O)[C@@H]1CCCN1C(=O)[C@H](CO)NC(=O)[C@H](CO)NC(=O)[C@H](Cc1c[nH]cn1)NC(=O)[C@H](CCCNC(=N)N)NC(=O)[C@H](CC(C)C)NC(=O)[C@H](Cc1ccccc1)NC(=O)[C@H](CC(N)=O)NC(=O)[C@H](C)NC(=O)[C@H](CC(C)C)NC(=O)[C@H](CCCNC(=N)N)NC(=O)[C@H](CCC(N)=O)NC(=O)[C@@H](NC(=O)[C@H](C)NC(=O)[C@@H]1CSSC[C@H](NC(=O)[C@@H](N)CCCCNC(=O)CC[C@H](NC(=O)CCCCCCCCCCCCC(=O)O)C(=O)O)C(=O)N[C@@H](CC(N)=O)C(=O)N[C@@H]([C@@H](C)O)C(=O)N[C@@H](C)C(=O)N[C@@H]([C@@H](C)O)C(=O)N1)[C@@H](C)O)C(=O)N1CCC[C@H]1C(=O)N[C@@H](CO)C(=O)N[C@@H](CO)C(=O)N[C@H](C(=O)N[C@@H](CC(N)=O)C(=O)N[C@H](C(=O)NCC(=O)N[C@@H](Cc1c[nH]cn1)C(=O)N[C@@H](CC(N)=O)C(=O)N[C@H](C(=O)N[C@@H](Cc1ccc(O)cc1)C(N)=O)[C@@H](C)O)C(C)C)[C@@H](C)O
B2: N^ε1-[(4S)-4-carboxy-4-(15-carboxypentadecanoylamino)butanoyl]-[Arg17,Pro21,Pro27,His34]-h-amylin (peptide)
peptide: K([γGlu-C16 diacid])CNTATCATQRLANFLRHSSPNFGAIPSSTNVGHNTY-NH2
modifications: disulfide 2-7; N-terminus assumed
SMILES: CC[C@H](C)[C@H](NC(=O)[C@H](C)NC(=O)CNC(=O)[C@H](Cc1ccccc1)NC(=O)[C@H](CC(N)=O)NC(=O)[C@@H]1CCCN1C(=O)[C@H](CO)NC(=O)[C@H](CO)NC(=O)[C@H](Cc1c[nH]cn1)NC(=O)[C@H](CCCNC(=N)N)NC(=O)[C@H](CC(C)C)NC(=O)[C@H](Cc1ccccc1)NC(=O)[C@H](CC(N)=O)NC(=O)[C@H](C)NC(=O)[C@H](CC(C)C)NC(=O)[C@H](CCCNC(=N)N)NC(=O)[C@H](CCC(N)=O)NC(=O)[C@@H](NC(=O)[C@H](C)NC(=O)[C@@H]1CSSC[C@H](NC(=O)[C@@H](N)CCCCNC(=O)CC[C@H](NC(=O)CCCCCCCCCCCCCCC(=O)O)C(=O)O)C(=O)N[C@@H](CC(N)=O)C(=O)N[C@@H]([C@@H](C)O)C(=O)N[C@@H](C)C(=O)N[C@@H]([C@@H](C)O)C(=O)N1)[C@@H](C)O)C(=O)N1CCC[C@H]1C(=O)N[C@@H](CO)C(=O)N[C@@H](CO)C(=O)N[C@H](C(=O)N[C@@H](CC(N)=O)C(=O)N[C@H](C(=O)NCC(=O)N[C@@H](Cc1c[nH]cn1)C(=O)N[C@@H](CC(N)=O)C(=O)N[C@H](C(=O)N[C@@H](Cc1ccc(O)cc1)C(N)=O)[C@@H](C)O)C(C)C)[C@@H](C)O
B3: N^ε1-[(4S)-4-carboxy-4-(17-carboxyheptadecanoylamino)butanoyl]-[Arg17,Pro21,Pro27,His34]-h-amylin (peptide)
peptide: K([γGlu-C18 diacid])CNTATCATQRLANFLRHSSPNFGAIPSSTNVGHNTY-NH2
modifications: disulfide 2-7; N-terminus assumed
SMILES: CC[C@H](C)[C@H](NC(=O)[C@H](C)NC(=O)CNC(=O)[C@H](Cc1ccccc1)NC(=O)[C@H](CC(N)=O)NC(=O)[C@@H]1CCCN1C(=O)[C@H](CO)NC(=O)[C@H](CO)NC(=O)[C@H](Cc1c[nH]cn1)NC(=O)[C@H](CCCNC(=N)N)NC(=O)[C@H](CC(C)C)NC(=O)[C@H](Cc1ccccc1)NC(=O)[C@H](CC(N)=O)NC(=O)[C@H](C)NC(=O)[C@H](CC(C)C)NC(=O)[C@H](CCCNC(=N)N)NC(=O)[C@H](CCC(N)=O)NC(=O)[C@@H](NC(=O)[C@H](C)NC(=O)[C@@H]1CSSC[C@H](NC(=O)[C@@H](N)CCCCNC(=O)CC[C@H](NC(=O)CCCCCCCCCCCCCCCCC(=O)O)C(=O)O)C(=O)N[C@@H](CC(N)=O)C(=O)N[C@@H]([C@@H](C)O)C(=O)N[C@@H](C)C(=O)N[C@@H]([C@@H](C)O)C(=O)N1)[C@@H](C)O)C(=O)N1CCC[C@H]1C(=O)N[C@@H](CO)C(=O)N[C@@H](CO)C(=O)N[C@H](C(=O)N[C@@H](CC(N)=O)C(=O)N[C@H](C(=O)NCC(=O)N[C@@H](Cc1c[nH]cn1)C(=O)N[C@@H](CC(N)=O)C(=O)N[C@H](C(=O)N[C@@H](Cc1ccc(O)cc1)C(N)=O)[C@@H](C)O)C(C)C)[C@@H](C)O
B4: N^ε1-[(4S)-4-carboxy-4-(19-carboxynonadecanoylamino)butanoyl]-[Ala14,Arg17,Pro21,Pro27,Pro34]-h-amylin (peptide)
peptide: K([γGlu-C20 diacid])CNTATCATQRLAAFLRHSSPNFGAIPSSTNVGPNTY-NH2
modifications: disulfide 2-7; N-terminus assumed
SMILES: CC[C@H](C)[C@H](NC(=O)[C@H](C)NC(=O)CNC(=O)[C@H](Cc1ccccc1)NC(=O)[C@H](CC(N)=O)NC(=O)[C@@H]1CCCN1C(=O)[C@H](CO)NC(=O)[C@H](CO)NC(=O)[C@H](Cc1c[nH]cn1)NC(=O)[C@H](CCCNC(=N)N)NC(=O)[C@H](CC(C)C)NC(=O)[C@H](Cc1ccccc1)NC(=O)[C@H](C)NC(=O)[C@H](C)NC(=O)[C@H](CC(C)C)NC(=O)[C@H](CCCNC(=N)N)NC(=O)[C@H](CCC(N)=O)NC(=O)[C@@H](NC(=O)[C@H](C)NC(=O)[C@@H]1CSSC[C@H](NC(=O)[C@@H](N)CCCCNC(=O)CC[C@H](NC(=O)CCCCCCCCCCCCCCCCCCC(=O)O)C(=O)O)C(=O)N[C@@H](CC(N)=O)C(=O)N[C@@H]([C@@H](C)O)C(=O)N[C@@H](C)C(=O)N[C@@H]([C@@H](C)O)C(=O)N1)[C@@H](C)O)C(=O)N1CCC[C@H]1C(=O)N[C@@H](CO)C(=O)N[C@@H](CO)C(=O)N[C@H](C(=O)N[C@@H](CC(N)=O)C(=O)N[C@H](C(=O)NCC(=O)N1CCC[C@H]1C(=O)N[C@@H](CC(N)=O)C(=O)N[C@H](C(=O)N[C@@H](Cc1ccc(O)cc1)C(N)=O)[C@@H](C)O)C(C)C)[C@@H](C)O
notes: also called compound 94

Biological target: T1, human calcitonin receptor
Test: ratio of IC50 on human calcitonin receptor to IC50 on human amylin receptor
Experimental: The resulting pellet was resuspended, homogenized and centrifuged (20.000 rpm, 15 min) in a buffer containing 20 mM Na-HEPES and 0.1 mM EDTA (pH 7.4, buffer 2). The resulting pellet was resuspended in buffer 2 and protein concentration was measured (BCA protein Assay, Pierce). The homogenate was kept cold during the whole procedure. The membranes were kept at −80° C. until use. The assay was performed in a 384 well Optiplate (PerkinElmer) in a total volume of 40 ul. Membranes were mixed with SPA beads. Final concentration of membranes 35 ng/μL final and SPA beads was 0.05 mg/well. Test-compounds were dissolved in DMSO and further diluted in assay buffer (50 mM Hepes, pH 7.4, 1 mM CaCl2, 5 mM MgCl₂, 0.1% OA and 0.02% Tween20). […] The final mixture was incubated with shaking at 400 rpm for 120 min at 25° C. prior to centrifugation (1500 rpm, 10 min). Samples were analyzed on TopCounter™ (Packard). The IC₅₀ was calculated using (one site binding competition analysis) GraphPad Prism5 as a measure of receptor affinity.
Membranes were prepared in the following way; the cells were rinsed with PBS and incubated with Versene for approximately 5 min before harvesting. The cells were flushed with PBS and the cell-suspension was centrifuged for 5 min at 1000 rpm. Cells were homogenized (Ultrathurrax) in a buffer containing 20 mM Na-HEPES and 10 mM EDTA (pH 7.4) and centrifuged at 20.000 rpm for 15 min. The resulting pellet was resuspended, homogenized and centrifuged (20.000 rpm, 15 min) in a buffer containing 20 mM Na-HEPES and 0.1 mM EDTA (pH 7.4, buffer 2). The resulting pellet was resuspended in buffer 2 and protein concentration was measured (BCA protein Assay, Pierce). The homogenate was kept cold during the whole procedure. The membranes were kept at −80° C. until use. Assay was performed in a 384 well Optiplate (PerkinElmer) in a total volume of 40 ul. Membranes were mixed with SPA beads.

Ratio hCT/hAmylin binding	Binder
23.5	B1
18.5	B2
59.4	B3
46.3	B4

Biological target: T2, rat calcitonin receptor
Test: ratio of IC50 on rat calcitonin receptor to IC50 on rat amylin receptor

Ratio rCT/rAmylin binding	Binder
280	B1
327	B2
40.3	B3
280	B4

Biological target: T3, rat amylin receptor (rat calcitonin …)
Test: SPA competition vs 125I-rat amylin, membranes (Assay VI)

IC50 [nM]	Binder
2.52	B1
1.24	B2
1.17	B3
0.397	B4

Biological target: T2, rat calcitonin receptor
Test: SPA competition vs 125I-calcitonin, membranes (Assay VIII)

IC50 [nM]	Binder
707	B1
404	B2
47	B3
111	B4
